These results are taken from patent publication US20260365696A1, “INHIBITORS OF PTP1B / NCK1 INTERACTION AND METHODS OF MAKING AND USING SAME” (Radella Pharmaceuticals LLC, priority 2023, published 2026).

Some results are limits rather than exact numbers.

A word on the Kd: it is the equilibrium constant for the complex coming apart. A lower Kd goes with higher affinity.

T1: NCK1 SH3-2 domain (human)
T1 chain: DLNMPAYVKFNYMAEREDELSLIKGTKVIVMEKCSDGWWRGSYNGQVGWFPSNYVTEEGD

The target in the first experiment is T1, NCK1 SH3-2 domain. Briefly: ITC. (Isothermal titration calorimetry measures the heat released or taken up as one component is titrated into another.)
Ac-PPRPPKRC-NH2 [MH142] returned a Kd below 300 µM. Still for that read-out and setting: the value for Ac-PPRPPKRH-NH2 [MH146] was below 300 µM; that for Ac-PPRPPKRS-NH2 [MH152] was below 300 µM.

In turn, Ac-PPRPPKRL-NH2 [MH147] registered a Kd below 300 µM. The same measure, in the same setting: next, Ac-PPRPPKRD-NH2 [MH141]: below 300 µM; Ac-PPRPPKRN-NH2 [MH140]: below 300 µM.

In another experiment the target is T1, NCK1 SH3-2 domain. In words: ITC. The source holds these as a separate data set.
For the molecule Ac-PPEHIPPPPRPPKR-NH2 [MH030], the equilibrium dissociation constant (Kd) was below 300 µM. Same read-out and setting: next, Ac-EHIPPPPRPPKR-NH2 [MH028]: below 300 µM.

Consider Ac-RPPKR-NH2 [MH018], for which the Kd is above 1000 µM. Same read-out and setting: next, PPK [MH015]: above 1000 µM; PRP [MH019]: above 1000 µM.

Ac-PRPP-NH2 [MH021]: the Kd was above 1000 µM.

A further experiment concerns the target T1, NCK1 SH3-2 domain. Briefly: ITC. This is another data set of the same source.
In turn, Ac-PPRPPFR-NH2 [MH105] came in with a dissociation constant (Kd) below 600 µM. Same read-out and setting: next, Ac-PPRPPVR-NH2 [MH126]: below 300 µM. Same read-out and setting: next, Ac-PPRPPIR-NH2 [MH098]: below 300 µM; Ac-PPRPPYR-NH2 [MH122]: below 300 µM; Ac-PPRPPSR-NH2 [MH052]: below 300 µM. The same measure, in the same setting: next, Ac-PPRPPTR-NH2 [MH116]: below 300 µM. Regarding Ac-PPRPPGR-NH2 [MH094], the Kd was above 600 µM. The same measure, in the same setting: the value for Ac-PPRPPLR-NH2 [MH102] was below 300 µM. Still for that read-out and setting: next, Ac-PPRPPNR-NH2 [MH053]: below 300 µM. The same measure, in the same setting: next, Ac-PPRPPPR-NH2 [MH107]: below 300 µM. Ac-PPRPPRR-NH2 [MH048] displayed a Kd below 300 µM. On the same count and under the same terms, next, Ac-PPRPPDR-NH2 [MH085]: below 600 µM; Ac-PPRPPER-NH2 [MH051]: below 300 µM; Ac-PPRPPQR-NH2 [MH088]: below 300 µM. Still for that read-out and setting: the value for Ac-PPRPPWR-NH2 [MH050] was below 300 µM; that for Ac-PPRPPMR-NH2 [MH112] was below 300 µM; that for Ac-PPRPPCR-NH2 [MH054] was below 300 µM. In turn, Ac-PPRPPHR-NH2 [MH049] gave a Kd below 300 µM.

The next experiment has as its target T1, NCK1 SH3-2 domain. In words: ITC. This is another data set of the same source.
Ac-DPRPPKR-NH2 [MH083] gave a dissociation constant Kd below 300 µM.

In turn, Ac-VPRPPKR-NH2 [MH123] registered a dissociation constant (Kd) below 300 µM. Take Ac-RPRPPKR-NH2 [MH068]: the Kd was below 300 µM. The same measure, in the same setting: the value for Ac-QPRPPKR-NH2 [MH086] was below 300 µM; that for Ac-MPRPPKR-NH2 [MH109] was below 300 µM; that for Ac-TPRPPKR-NH2 [MH113] was below 300 µM. On the same count and under the same terms, the value for Ac-IPRPPKR-NH2 [MH095] was below 300 µM.

Turning to Ac-GPRPPKR-NH2 [MH091], the dissociation constant (Kd) was below 300 µM.

Ac-EPRPPKR-NH2 [MH071] returned a Kd below 300 µM. The molecule Ac-SPRPPKR-NH2 [MH074] had a Kd below 300 µM. Ac-KPRPPKR-NH2 [MH103]: the Kd was below 300 µM.

Turning to Ac-WPRPPKR-NH2 [MH117], the Kd was below 300 µM. Ac-YPRPPKR-NH2 [MH119]: the Kd was below 300 µM. With Ac-HPRPPKR-NH2 [MH072], the dissociation constant (Kd) was below 300 µM.

As for Ac-FPRPPKR-NH2 [MH073], the Kd is below 300 µM. On the same count and under the same terms, the value for Ac-NPRPPKR-NH2 [MH069] was below 300 µM; that for Ac-CPRPPKR-NH2 [MH070] was below 300 µM; that for Ac-LPRPPKR-NH2 [MH099] was below 600 µM.

In the next experiment the target is T1, NCK1 SH3-2 domain. Briefly: ITC. The source holds these as a separate data set.
Ac-PPQPPKR-NH2 [MH087]: the Kd is below 300 µM. On the same count and under the same terms, the value for Ac-PPLPPKR-NH2 [MH100] was below 300 µM; that for Ac-PPHPPKR-NH2 [MH057] was below 300 µM; that for Ac-PPKPPKR-NH2 [MH055] was below 300 µM.

In turn, Ac-PPMPPKR-NH2 [MH110] gave a dissociation constant (Kd) below 300 µM.

In turn, Ac-PPSPPKR-NH2 [MH059] had a Kd below 300 µM. Take Ac-PPNPPKR-NH2 [MH060]: the dissociation constant Kd was below 300 µM. On the same count and under the same terms, next, Ac-PPGPPKR-NH2 [MH092]: above 600 µM; Ac-PPWPPKR-NH2 [MH056]: below 600 µM.

In the case of Ac-PPTPPKR-NH2 [MH114], the Kd was below 300 µM. Still for that read-out and setting: next, Ac-PPVPPKR-NH2 [MH124]: below 300 µM.

In the case of Ac-PPPPPKR-NH2 [MH106], the dissociation constant (Kd) is below 300 µM.

Molecule Ac-PPCPPKR-NH2 [MH061] had a dissociation constant (Kd) below 300 µM.

Ac-PPDPPKR-NH2 [MH084] showed a Kd below 300 µM. On to Ac-PPEPPKR-NH2 [MH058], for which the Kd is below 300 µM.

In the case of Ac-PPFPPKR-NH2 [MH066], the equilibrium dissociation constant (Kd) is below 300 µM. Same read-out and setting: the value for Ac-PPYPPKR-NH2 [MH120] was below 300 µM. Same read-out and setting: next, Ac-PPIPPKR-NH2 [MH096]: below 300 µM.
